# T1: CD5 on CD5-positive tumor cell lines (CCRF-CEM, RPMI-8402_Luc / RPMI-8402-Luciferase, RPMI-8402) (human, UniProt P06127 25-495)
# T1 sequence (looked up): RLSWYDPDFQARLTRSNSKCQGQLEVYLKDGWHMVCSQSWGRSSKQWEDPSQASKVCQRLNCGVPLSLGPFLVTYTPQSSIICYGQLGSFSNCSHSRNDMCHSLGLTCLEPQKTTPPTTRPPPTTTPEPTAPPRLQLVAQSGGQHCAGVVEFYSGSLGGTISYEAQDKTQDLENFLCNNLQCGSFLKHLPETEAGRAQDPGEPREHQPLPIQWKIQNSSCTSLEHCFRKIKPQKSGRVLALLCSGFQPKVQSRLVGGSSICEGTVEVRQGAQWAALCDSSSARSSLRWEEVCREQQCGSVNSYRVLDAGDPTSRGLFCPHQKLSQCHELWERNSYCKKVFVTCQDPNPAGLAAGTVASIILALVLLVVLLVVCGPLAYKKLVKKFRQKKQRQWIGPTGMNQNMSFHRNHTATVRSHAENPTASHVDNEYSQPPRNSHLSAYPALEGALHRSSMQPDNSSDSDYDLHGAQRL
# B1: CD5 CAR (fourth generation), chimeric antigen receptor with anti-CD5 scFv, expressed on cord blood-derived NK cells (receptor)
# chain: EIQLVQSGGGLVKPGGSVRISCAASGYTFTNYGMNWVRQAPGKGLEWMGWINTHTGEPTYADSFKGRFTFSLDDSKNTAYLQINSLRAEDTAVYFCTRRGYDWYFDVWGQGTTVTVSSGGGGSGGGGSGGGGSDIQMTQSPSSLSASVGDRVTITCRASQDINSYLSWFQQKPGKAPKTLIYRANRLESGVPSRFSGSGSGTDYTLTISSLQYEDFGIYYCQQYDESPWTFGGGTKLEIKAKPTTTPAPRPPTPAPTIASQPLSLRPEACRPAAGGAVHTRGLDFACDFWVLVVVGGVLACYSLLVTVAFIIFWVRSKRSRLLHSDYMNMTPRRPGPTRKHYQPYAPPRDFAAYRSERVQPLEENVGNAARPRFERNKRVKFSRSADAPAYQQGQNQLYNELNLGRREEYDVLDKRRGRDPEMGGKPRRKNPQEGLYNELQKDKMAEAYSEIGMKGERRRGKGHDGLYQGLSTATKDTYDALHMQALPPR
# Target: T1, CD5 on CD5-positive tumor cell lines …
# Assay: cell-based or functional assay
binder,measurement,value
B1,"expression of CD107a and cytokines (IFN-γ and TNF-α) in NK cells co-cultured with CCRF-CEM and RPMI-8402_Luc, CD5 CAR-NK against CBNK",≥ 2 fold

# Reference: patent publication US20260108608A1 (GC CELL, published 2026)
